These results are taken from article PMC3632419.

What all share (test): coupled-enzyme assay of AMP release
Type in all cases: biochemical, Streptomyces clavuligerus
Holding throughout (conditions): ATP as co-substrate

Substrate in data set [1]: C[C@@H](CN[C@@H](CCCNC(=N)N)C(=O)O)C(=O)O
Substrate in data set [2]: C[C@H](CN[C@@H](CCCNC(=N)N)C(=O)O)C(=O)O
Substrate in data set [3]: N=C(N)NCCC[C@H](NCCC(=O)O)C(=O)O

Substitutions are numbered along the chain they refer to. In names and notes the source's numbering stands.

As usually defined, the Km is the substrate concentration at which the rate is half of its maximum. As usually defined, the kcat is the number of substrate molecules converted per active site and unit of time at saturation.

B1: β-lactam synthetase (βLS) (Streptomyces clavuligerus) (protein)
chain: MGAPVLPAAFGFLASARTGGGRAPGPVFATRGSHTDIDTPQGERSLAATLVHAPSVAPDRAVARSLTGAPTTAVLAGEIYNRDELLSVLPAGPAPEGDAELVLRLLERYDLHAFRLVNGRFATVVRTGDRVLLATDHAGSVPLYTCVAPGEVRASTEAKALAAHRDPKGFPLADARRVAGLTGVYQVPAGAVMDIDLGSGTAVTHRTWTPGLSRRILPEGEAVAAVRAALEKAVAQRVTPGDTPLVVLSGGIDSSGVAACAHRAAGELDTVSMGTDTSNEFREARAVVDHLRTRHREITIPTTELLAQLPYAVWASESVDPDIIEYLLPLTALYRALDGPERRILTGYGADIPLGGMHREDRLPALDTVLAHDMATFDGLNEMSPVLSTLAGHWTTHPYWDREVLDLLVSLEAGLKRRHGRDKWVLRAAMADALPAETVNRPKLGVHEGSGTTSSFSRLLLDHGVAEDRVHEAKRQVVRELFDLTVGGGRHPSEVDTDDVVRSVADRTARGAA
For the protein B1, the Km is 60 ± 10 µM in data set [1], 40 ± 10 µM in data set [2] and 37 ± 1 µM in data set [3]. Moreover, the kcat in data set [1] was found to be 0.023 ± 0.001 s⁻¹; in data set [2] it was 0.032 ± 0.002 s⁻¹; in data set [3], 0.87 ± 0.01 s⁻¹.

B2: β-lactam synthetase (βLS) (Streptomyces clavuligerus; V446G) (protein)
chain: B1 chain with V446G
On to B2, for which the Km was 1200 ± 100 µM in data set [1], 1900 ± 700 µM in data set [2] and 610 ± 60 µM in data set [3]. The kcat in data set [1] was 0.13 ± 0.01 s⁻¹; in data set [2] it was 0.07 ± 0.002 s⁻¹; in data set [3] it was 0.13 ± 0.01 s⁻¹.

B3: β-lactam synthetase (βLS) (Streptomyces clavuligerus; V446A) (protein)
chain: B1 chain with V446A
On to B3, for which the values for the Km in data set [1], in data set [2] and in data set [3] were 460 ± 40 µM, 330 ± 20 µM and 360 ± 20 µM, respectively. Moreover, the kcat came to 0.34 ± 0.02 s⁻¹ in data set [1], 0.014 ± 0.001 s⁻¹ in data set [2] and 0.28 ± 0.01 s⁻¹ in data set [3].

B4: β-lactam synthetase (βLS) (Streptomyces clavuligerus; H447A) (protein)
chain: B1 chain with H447A
As for B4, in data set [1], the Km came to 80 ± 60 µM and the kcat is 0.013 ± 0.001 s⁻¹.
